This is an account of results in paper PMC10344929, “Crosstalk between regulatory elements in disordered TRPV4 N-terminus modulates lipid-dependent channel activity” (Nature Communications, 2023).

This test concerns the target T1, Gallus gallus TRPV4 isolated ankyrin repeat domain (residues 135-382) (Gallus gallus, UniProt A0A1D5PXA5 135-382).
T1 construct: TRPV4, Gallus gallus, ankyrin repeat domain, residues 135-382; Made from the NTD vector by Gibson deletion; also called ARD; TRPV4 ARD; source: E. coli BL21-Gold(DE3), purified (Ni-NTA, Ulp-1 cleavage, reverse Ni-NTA, SEC); not shown: His6SUMO, N-terminal, cleaved
Nature of the test: cross-linking; DSS-H12/D12 cross-linking mass spectrometry; isolated IDR and ARD mixed 1:1; 1.5 nmol DSS per ug protein, 2 h at 4 °C, 1 mg/mL protein, 20 mM HEPES pH 7, 300 mM NaCl. Conditions: both partners purified.

T1 sequence (A0A1D5PXA5 135-382): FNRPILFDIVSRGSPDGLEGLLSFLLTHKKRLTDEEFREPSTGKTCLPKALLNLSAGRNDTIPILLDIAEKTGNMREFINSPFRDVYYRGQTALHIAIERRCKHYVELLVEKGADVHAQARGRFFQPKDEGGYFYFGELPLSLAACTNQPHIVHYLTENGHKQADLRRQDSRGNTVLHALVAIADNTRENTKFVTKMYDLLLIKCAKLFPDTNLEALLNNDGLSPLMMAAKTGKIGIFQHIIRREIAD

B1: Gallus gallus TRPV4 isolated intrinsically disordered region (residues 2-134) (domain or fragment, UniProt A0A1D5PXA5 2-134, looked up)
chain: ADPEDPRDAGDVLGDDSFPLSSLANLFEVEDTPSPAEPSRGPPGAVDGKQNLRMKFHGAFRKGPPKPMELLESTIYESSVVPAPKKAPMDSLFDYGTYRQHPSENKRWRRRVVEKPVAGTKGPAPNPPPILKV
notes: TRPV4, Gallus gallus, N-terminal intrinsically disordered region, residues 2-134; Made from the NTD vector by Gibson deletion; also called IDR; TRPV4 IDR; source: E. coli BL21-Gold(DE3), purified (Ni-NTA, Ulp-1 cleavage, reverse Ni-NTA, SEC); not shown: His6SUMO, N-terminal, cleaved
Regarding B1, the binding result is on record as “binds”.
